Measured values taken from paper PMC9832874.

Target: T1, Human C-reactive protein, pentameric (pCRP) (human), P02741
T1 chain: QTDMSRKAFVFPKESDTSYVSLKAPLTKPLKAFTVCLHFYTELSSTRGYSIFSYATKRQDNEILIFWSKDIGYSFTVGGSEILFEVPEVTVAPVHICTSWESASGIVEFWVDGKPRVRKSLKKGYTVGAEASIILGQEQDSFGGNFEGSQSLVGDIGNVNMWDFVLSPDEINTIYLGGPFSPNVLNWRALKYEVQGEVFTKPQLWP
Assay: crystal structure; pCRP at 8 mg/ml in 20 mM Tris, 140 mM NaCl, 2 mM CaCl2, co-crystallised with C10M (1:3 molar ratio pCRP:C10M); hanging drop at 20°C; well buffer 100 mM Tris pH 9, 10% PEG 4000, 50 mM LiCl, 200 mM MgCl2; oligomer seen: pentamer
Conditions: remark: other sources report otherwise

B1: Human C-reactive protein, pentameric (pCRP), P02741 19-224 (natural protein)
chain: QTDMSRKAFVFPKESDTSYVSLKAPLTKPLKAFTVCLHFYTELSSTRGYSIFSYATKRQDNEILIFWSKDIGYSFTVGGSEILFEVPEVTVAPVHICTSWESASGIVEFWVDGKPRVRKSLKKGYTVGAEASIILGQEQDSFGGNFEGSQSLVGDIGNVNMWDFVLSPDEINTIYLGGPFSPNVLNWRALKYEVQGEVFTKPQLWP
B1 showed a stoichiometry N of 5.
